Results from paper PMC4367269, “Probing the Acceptor Active Site Organization of the Human Recombinant β1,4-Galactosyltransferase 7 and Design of Xyloside-based Inhibitors” (The Journal of Biological Chemistry, 2015).

T1: hβ4GalT7 (GST-β4GalT7) (Homo sapiens, UniProt Q9UBV7)
T1 construct: gene B4GALT7; truncated soluble form lacking the first 60 N-terminal amino acids (transmembrane domain and part of stem), GST fusion (tag kept), pET-41a(+), E. coli BL21(DE3), glutathione-Sepharose purified
T1 sequence (Q9UBV7 61-327): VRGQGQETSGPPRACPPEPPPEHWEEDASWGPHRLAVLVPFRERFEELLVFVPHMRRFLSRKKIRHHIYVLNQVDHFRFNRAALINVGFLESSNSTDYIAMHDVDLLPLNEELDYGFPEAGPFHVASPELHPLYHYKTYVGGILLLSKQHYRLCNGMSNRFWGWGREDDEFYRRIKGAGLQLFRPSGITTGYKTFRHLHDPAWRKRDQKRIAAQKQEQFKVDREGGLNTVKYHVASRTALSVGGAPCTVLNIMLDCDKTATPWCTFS


What was measured:
hβ4GalT7 (GST-β4GalT7) [1] = biological target: T1, hβ4GalT7 (GST-β4GalT7); assay: galactosyltransferase competition assay, HPLC-UV; assay type: biochemical
Text: galactosyltransferase competition assay, HPLC-UV on hβ4GalT7 (GST-β4GalT7)

hβ4GalT7 (GST-β4GalT7) [2] = biological target: T1, hβ4GalT7 (GST-β4GalT7); assay: galactosyltransferase competition assay, HPLC-UV; assay type: biochemical; details: 0.5 mM 4-MUX, 1 mM UDP-Gal, 10 mM MnCl2, 100 mM sodium cacodylate pH 7.0, 37 °C; IC50 and Ki not determined
[3] = substrate: Cc1cc(=O)oc2cc(O[C@@H]3OC[C@@H](O)[C@H](O)[C@H]3O)ccc12; assay: galactosyltransferase assay, HPLC-UV; assay type: biochemical, Homo sapiens; details: apparent, fixed 1 mM UDP-Gal, 10 mM MnCl2, 100 mM sodium cacodylate pH 7.0, 37 °C
Text: (§1) galactosyltransferase assay, HPLC-UV on hβ4GalT7 (GST-β4GalT7)

[4] = substrate: O=c1ccn([C@@H]2O[C@H](COP(=O)(O)OP(=O)(O)O[C@H]3O[C@H](CO)[C@H](O)[C@H](O)[C@H]3O)[C@@H](O)[C@H]2O)c(=O)[nH]1; assay: galactosyltransferase assay, HPLC-UV; assay type: biochemical, Homo sapiens; details: apparent, fixed 5 mM 4-MUX, 10 mM MnCl2, 100 mM sodium cacodylate pH 7.0, 37 °C
Text: as §1

Row | IC50 (hβ4GalT7 (GST-β4GalT7) [1]) [µM] | Ki (hβ4GalT7 (GST-β4GalT7) [1]) [µM] | % decrease of activity at the highest concentration (5 mM) (hβ4GalT7 (GST-β4GalT7) [2]) [%] | Molecule | Km [3] [µM] | kcat [3] [s⁻¹] | kcat/Km [3] [M⁻¹ s⁻¹] | Km [4] [µM] | kcat [4] [s⁻¹] | kcat/Km [4] [M⁻¹ s⁻¹]
1 | 1280 ± 220 | 530 ± 100 |  | Cc1cc(=O)oc2cc(O[C@@H]3OCC[C@H](O)[C@H]3O)ccc12 [4H-Xyl-MU, 4-Methylumbelliferyl-4-deoxy-β-D-xylopyranoside] |  |  |  |  |  | 
2 |  |  | < 25 | O[C@H]1[C@H](Oc2ccc3ccccc3c2)OCC[C@@H]1O [4H-Xyl-NP, Naphthyl-4-deoxy-β-D-xylopyranoside] |  |  |  |  |  | 
3 |  |  |  | hβ4GalT7 (GST-β4GalT7) (Homo sapiens; H195R) (protein, truncated soluble form lacking the first 60 N-terminal amino acids (transmembrane domain and part of stem), GST fusion (tag kept), pET-41a(+), E. coli BL21(DE3), glutathione-Sepharose purified) VRGQGQETSGPPRACPPEPPPEHWEEDASWGPHRLAVLVPFRERFEELLVFVPHMRRFLSRKKIRHHIYVLNQVDHFRFNRAALINVGFLESSNSTDYIAMHDVDLLPLNEELDYGFPEAGPFHVASPELHPLYRYKTYVGGILLLSKQHYRLCNGMSNRFWGWGREDDEFYRRIKGAGLQLFRPSGITTGYKTFRHLHDPAWRKRDQKRIAAQKQEQFKVDREGGLNTVKYHVASRTALSVGGAPCTVLNIMLDCDKTATPWCTFS | 350 ± 30 | 1.49 ± 0.0217 | 4030 | 320 ± 20 | 1.49 ± 0.0217 | 4920
4 |  |  |  | hβ4GalT7 (GST-β4GalT7) (Homo sapiens; R226K) (protein, truncated soluble form lacking the first 60 N-terminal amino acids (transmembrane domain and part of stem), GST fusion (tag kept), pET-41a(+), E. coli BL21(DE3), glutathione-Sepharose purified) VRGQGQETSGPPRACPPEPPPEHWEEDASWGPHRLAVLVPFRERFEELLVFVPHMRRFLSRKKIRHHIYVLNQVDHFRFNRAALINVGFLESSNSTDYIAMHDVDLLPLNEELDYGFPEAGPFHVASPELHPLYHYKTYVGGILLLSKQHYRLCNGMSNRFWGWGKEDDEFYRRIKGAGLQLFRPSGITTGYKTFRHLHDPAWRKRDQKRIAAQKQEQFKVDREGGLNTVKYHVASRTALSVGGAPCTVLNIMLDCDKTATPWCTFS | 460 ± 10 | 1.35 ± 0.0483 | 2920 | 290 ± 20 | 1.35 ± 0.0483 | 4700
5 |  |  |  | hβ4GalT7 (GST-β4GalT7) (Homo sapiens; R270A) (protein, truncated soluble form lacking the first 60 N-terminal amino acids (transmembrane domain and part of stem), GST fusion (tag kept), pET-41a(+), E. coli BL21(DE3), glutathione-Sepharose purified) VRGQGQETSGPPRACPPEPPPEHWEEDASWGPHRLAVLVPFRERFEELLVFVPHMRRFLSRKKIRHHIYVLNQVDHFRFNRAALINVGFLESSNSTDYIAMHDVDLLPLNEELDYGFPEAGPFHVASPELHPLYHYKTYVGGILLLSKQHYRLCNGMSNRFWGWGREDDEFYRRIKGAGLQLFRPSGITTGYKTFRHLHDPAWRKRDQKAIAAQKQEQFKVDREGGLNTVKYHVASRTALSVGGAPCTVLNIMLDCDKTATPWCTFS | 600 ± 20 | 0.773 ± 0.0033 | 1200 | 270 ± 10 | 0.773 ± 0.0033 | 3070
6 |  |  |  | hβ4GalT7 (GST-β4GalT7) (Homo sapiens; Y199F) (protein, truncated soluble form lacking the first 60 N-terminal amino acids (transmembrane domain and part of stem), GST fusion (tag kept), pET-41a(+), E. coli BL21(DE3), glutathione-Sepharose purified) VRGQGQETSGPPRACPPEPPPEHWEEDASWGPHRLAVLVPFRERFEELLVFVPHMRRFLSRKKIRHHIYVLNQVDHFRFNRAALINVGFLESSNSTDYIAMHDVDLLPLNEELDYGFPEAGPFHVASPELHPLYHYKTFVGGILLLSKQHYRLCNGMSNRFWGWGREDDEFYRRIKGAGLQLFRPSGITTGYKTFRHLHDPAWRKRDQKRIAAQKQEQFKVDREGGLNTVKYHVASRTALSVGGAPCTVLNIMLDCDKTATPWCTFS | 590 ± 60 | 1.2 ± 0.0967 | 1880 | 320 ± 20 | 1.2 ± 0.0967 | 4050
7 |  |  |  | hβ4GalT7 (GST-β4GalT7) (Homo sapiens; H195A) (protein, truncated soluble form lacking the first 60 N-terminal amino acids (transmembrane domain and part of stem), GST fusion (tag kept), pET-41a(+), E. coli BL21(DE3), glutathione-Sepharose purified) VRGQGQETSGPPRACPPEPPPEHWEEDASWGPHRLAVLVPFRERFEELLVFVPHMRRFLSRKKIRHHIYVLNQVDHFRFNRAALINVGFLESSNSTDYIAMHDVDLLPLNEELDYGFPEAGPFHVASPELHPLYAYKTYVGGILLLSKQHYRLCNGMSNRFWGWGREDDEFYRRIKGAGLQLFRPSGITTGYKTFRHLHDPAWRKRDQKRIAAQKQEQFKVDREGGLNTVKYHVASRTALSVGGAPCTVLNIMLDCDKTATPWCTFS | 640 ± 20 | 1.932 ± 0.162 | 3000 | 400 ± 20 | 1.932 ± 0.162 | 4850
8 |  |  |  | hβ4GalT7 (GST-β4GalT7) (Homo sapiens; R270K) (protein, truncated soluble form lacking the first 60 N-terminal amino acids (transmembrane domain and part of stem), GST fusion (tag kept), pET-41a(+), E. coli BL21(DE3), glutathione-Sepharose purified) VRGQGQETSGPPRACPPEPPPEHWEEDASWGPHRLAVLVPFRERFEELLVFVPHMRRFLSRKKIRHHIYVLNQVDHFRFNRAALINVGFLESSNSTDYIAMHDVDLLPLNEELDYGFPEAGPFHVASPELHPLYHYKTYVGGILLLSKQHYRLCNGMSNRFWGWGREDDEFYRRIKGAGLQLFRPSGITTGYKTFRHLHDPAWRKRDQKKIAAQKQEQFKVDREGGLNTVKYHVASRTALSVGGAPCTVLNIMLDCDKTATPWCTFS | 540 ± 70 | 0.812 ± 0.025 | 1420 | 370 ± 20 | 0.812 ± 0.025 | 2320
9 |  |  |  | hβ4GalT7 (GST-β4GalT7) (Homo sapiens) (protein, truncated soluble form lacking the first 60 N-terminal amino acids (transmembrane domain and part of stem), GST fusion (tag kept), pET-41a(+), E. coli BL21(DE3), glutathione-Sepharose purified) VRGQGQETSGPPRACPPEPPPEHWEEDASWGPHRLAVLVPFRERFEELLVFVPHMRRFLSRKKIRHHIYVLNQVDHFRFNRAALINVGFLESSNSTDYIAMHDVDLLPLNEELDYGFPEAGPFHVASPELHPLYHYKTYVGGILLLSKQHYRLCNGMSNRFWGWGREDDEFYRRIKGAGLQLFRPSGITTGYKTFRHLHDPAWRKRDQKRIAAQKQEQFKVDREGGLNTVKYHVASRTALSVGGAPCTVLNIMLDCDKTATPWCTFS | 350 ± 20 | 1.51 ± 0.0383 | 4170 | 220 ± 20 | 1.51 ± 0.0383 | 7080
10 |  |  |  | hβ4GalT7 (GST-β4GalT7) (Homo sapiens; R226A) (protein, truncated soluble form lacking the first 60 N-terminal amino acids (transmembrane domain and part of stem), GST fusion (tag kept), pET-41a(+), E. coli BL21(DE3), glutathione-Sepharose purified) VRGQGQETSGPPRACPPEPPPEHWEEDASWGPHRLAVLVPFRERFEELLVFVPHMRRFLSRKKIRHHIYVLNQVDHFRFNRAALINVGFLESSNSTDYIAMHDVDLLPLNEELDYGFPEAGPFHVASPELHPLYHYKTYVGGILLLSKQHYRLCNGMSNRFWGWGAEDDEFYRRIKGAGLQLFRPSGITTGYKTFRHLHDPAWRKRDQKRIAAQKQEQFKVDREGGLNTVKYHVASRTALSVGGAPCTVLNIMLDCDKTATPWCTFS | 440 ± 50 | 0.893 ± 0.0333 | 1870 | 340 ± 30 | 0.893 ± 0.0333 | 2850
11 |  |  |  | hβ4GalT7 (GST-β4GalT7) (Homo sapiens; H195Q) (protein, truncated soluble form lacking the first 60 N-terminal amino acids (transmembrane domain and part of stem), GST fusion (tag kept), pET-41a(+), E. coli BL21(DE3), glutathione-Sepharose purified) VRGQGQETSGPPRACPPEPPPEHWEEDASWGPHRLAVLVPFRERFEELLVFVPHMRRFLSRKKIRHHIYVLNQVDHFRFNRAALINVGFLESSNSTDYIAMHDVDLLPLNEELDYGFPEAGPFHVASPELHPLYQYKTYVGGILLLSKQHYRLCNGMSNRFWGWGREDDEFYRRIKGAGLQLFRPSGITTGYKTFRHLHDPAWRKRDQKRIAAQKQEQFKVDREGGLNTVKYHVASRTALSVGGAPCTVLNIMLDCDKTATPWCTFS | 550 ± 20 | 1.62 ± 0.04 | 2950 | 330 ± 20 | 1.62 ± 0.04 | 4920
12 |  |  |  | hβ4GalT7 (GST-β4GalT7) (Homo sapiens; Y196F) (protein, truncated soluble form lacking the first 60 N-terminal amino acids (transmembrane domain and part of stem), GST fusion (tag kept), pET-41a(+), E. coli BL21(DE3), glutathione-Sepharose purified) VRGQGQETSGPPRACPPEPPPEHWEEDASWGPHRLAVLVPFRERFEELLVFVPHMRRFLSRKKIRHHIYVLNQVDHFRFNRAALINVGFLESSNSTDYIAMHDVDLLPLNEELDYGFPEAGPFHVASPELHPLYHFKTYVGGILLLSKQHYRLCNGMSNRFWGWGREDDEFYRRIKGAGLQLFRPSGITTGYKTFRHLHDPAWRKRDQKRIAAQKQEQFKVDREGGLNTVKYHVASRTALSVGGAPCTVLNIMLDCDKTATPWCTFS | 1060 ± 60 | 0.5 ± 0.0183 | 467 | 340 ± 60 | 0.5 ± 0.0183 | 1470
